Laboratory results as given in patent publication US20240336686A1 (ELPISCIENCE SUZHOU BIOPHARMA, published 2024).
Numbering of substitutions follows the chain as printed. Like-named read-outs stand apart in the source and are kept apart here.

B1: Anti-SIRPα antibody C59 (antibody, V domains shown)
VH: QVQLQQSGPELVKPGASVKMSCKASGYTFSEYVLSWVKQRTGQGLEWIGEIYPGTITTYYNEKFKGKATLTADKSSNTAYIQLTSLTSEDSAVYFCGRFYDYDGGWFAYWGQGTLLTVSA
VL: ENVLTQSPEKMAVSLGQKVTMTCSASSSVSSSDLHWYQQKSGASPKPLIHGTSNLASGVPARFSGSGSGTSYSLTISSVEAEDAATYYCQQWSGYPWTFGGGTNLEIK
notes: Mouse variable regions; tested as purified chimeric antibody; also called 059c
B2: Humanized anti-SIRPα antibody hu025.021 (antibody, V domains shown)
VH: EVQLVQSGAEVKKPGATVKISCKVSGFNIKDYYMHWVQQAPGKGLEWIGRIDPEDAETKYAPKFQGRVTITADTSTNTAYMELSSLRSEDTAVYYCDRGLAYWGQGTLVTVSS
VL: EIVLTQSPATLSLSPGERATLSCSASSSVSSSYLYWYQQKPGQAPKLWIYSTSNLASGIPARFSGSGSGTDYTLTISSLEPEDFAVYYCHQWSSYPYTFGQGTKLEIK
notes: Humanized from C25
B3: Humanized anti-SIRPα antibody hu025.059 (antibody, V domains shown)
VH: B2 VH with V24A
VL: B2 VL
notes: Humanized from C25
B4: Humanized anti-SIRPα antibody hu025.023 (antibody, V domains shown)
VH: B2 VH
VL: B2 VL with Y72F
notes: Humanized from C25
B5: Humanized anti-SIRPα antibody hu025.033 (antibody, V domains shown)
VH: B2 VH with N77D
VL: B2 VL
notes: Humanized from C25
B6: Humanized anti-SIRPα antibody hu025.060 (antibody, V domains shown)
VH: B2 VH with V24A
VL: B2 VL with Y72F
notes: Humanized from C25
B7: Anti-SIRPα antibody C15 (antibody, V domains shown)
VH: EVQLQQSGVEVVQPGASVKLSCTASGFNIEAYYMHWVKQRTEQGLEWIGRIDPEDGESKYAPKFQGKATMTADTSSSTAYLQLSSLTSDDTAVYYCVRGSYEYWGQGTTLTVSS
VL: QIVLTQSPAIMSASPGEKVTLTCSASSSVSSSYLYWYQQKPGSSPKLWIYSTSNLASGVPPRFSGSGSGTSYSLTISSMQAEDAASYFCYQWSSYPYTFGGGTKLEIK
notes: Mouse variable regions; tested as purified chimeric antibody; also called 015c
B8: Anti-PDL1/SIRPα bispecific antibody ES019-026 (bispecific antibody, not shown: small tags and cut ends; a dimerising Fc or GST)
light (part 1 of 2): EVQVVESGGGLVQSGGSLKLSCAGSGFTESAGFMVWHRQVPGKERELVALIATPSGSTNYADSVKGRFTISRDNGKNTVYLQMNSLKPEDTAVYYCNIRGYWGQGTLVTVSS
light (part 2 of 2): B7 VL with P61A, Q80E, Y90H
heavy: EVQLQQSGAELVKPGASVKLSCTASGFNIKDYYMHWVKQRTEQGLEWIGRIDPEDGETKYAPKFQGKATITADTSSNTAYLQLSSLTSEDTAVYYCDRGLAYWGQGTLVTVSA

What was measured:
[1] = target: T1, human SIRPα v2 ECD recombinant protein (human); assay: competitive ELISA, plate-coated human SIRPα v2 ECD; blocked ligand: mFc tagged human CD47 ECD
T1 construct: extracellular domain; Coated on the ELISA plate
Procedure: (§1) Competitive ELISA assay was used to determine whether the purified chimeric antibodies can block CD47 and SIRPα interaction. Briefly, antibody and mFc tagged human CD47 ECD recombinant protein were co-incubated with ELISA microplate coated human SIRPα v1 ECD or human SIRPα v2 ECD recombinant protein. The concentration of soluble ECD of CD47 is 25 nM, and the concentration of soluble ECD of SIRPα is 20 nM. After washing, HRP labeled anti-mouse Fc 2nd antibody (Sigma) was added and incubated at 37° C. for 1 hour. Then, 100 μl/well of TMB solution (Biotechnology) was added. After incubation for 15 minutes at room temperature, the reaction was stopped by the addition of 50 μl of 1N HCl. OD 450 nm was read. Blocking ratio was determined by blockade of human SIRPα ECD recombinant protein binding to ELISA microplate coated human CD47 ECD recombinant protein. All antibodies as tested can block interaction between human CD47 and different human SIRPα variants.

[2] = target: T2, human SIRPα v2 on CHOK1 cells (human, UniProt P78324 31-504); assay: FACS, CHOK1 cells stably expressing human SIRPα v2
T2 construct: whole, on cells; also called CHOK1-hSIRPα v2; cell surface human SIRPα v2
T2 sequence (P78324 other isoform, or with tags, fused parts or gaps limits assumed): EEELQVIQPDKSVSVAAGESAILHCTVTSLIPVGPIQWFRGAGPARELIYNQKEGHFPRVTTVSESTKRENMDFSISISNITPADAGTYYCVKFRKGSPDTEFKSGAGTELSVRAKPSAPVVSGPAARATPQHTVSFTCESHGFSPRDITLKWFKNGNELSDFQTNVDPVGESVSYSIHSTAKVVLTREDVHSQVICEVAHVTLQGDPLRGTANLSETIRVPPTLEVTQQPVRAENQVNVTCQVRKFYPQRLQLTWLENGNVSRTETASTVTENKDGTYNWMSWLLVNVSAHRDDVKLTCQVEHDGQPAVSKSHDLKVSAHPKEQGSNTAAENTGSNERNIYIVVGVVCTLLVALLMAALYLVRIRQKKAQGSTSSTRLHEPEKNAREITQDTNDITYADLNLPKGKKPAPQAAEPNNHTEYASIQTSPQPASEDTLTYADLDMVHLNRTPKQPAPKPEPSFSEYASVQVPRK
Source text: (§2) Binding activity of the purified chimeric antibodies against human SIRPα variants was detected by FACS assay using CHOK1 cells or 293F cells stably expressing human SIRPα v1 and CHOK1 cells stably expressing human SIRPα v2. […] EC₅₀ and top signal calculated using GraphPad Prism9.0.

[3] = target: T3, human SIRPα v1 on CHOK1 cells (human, UniProt P78324 31-504); assay: FACS, CHOK1 cells stably expressing human SIRPα v1
T3 construct: whole, on cells; also called CHOK1-hSIRPα v1; cell surface human SIRPα v1
T3 sequence (P78324 31-504): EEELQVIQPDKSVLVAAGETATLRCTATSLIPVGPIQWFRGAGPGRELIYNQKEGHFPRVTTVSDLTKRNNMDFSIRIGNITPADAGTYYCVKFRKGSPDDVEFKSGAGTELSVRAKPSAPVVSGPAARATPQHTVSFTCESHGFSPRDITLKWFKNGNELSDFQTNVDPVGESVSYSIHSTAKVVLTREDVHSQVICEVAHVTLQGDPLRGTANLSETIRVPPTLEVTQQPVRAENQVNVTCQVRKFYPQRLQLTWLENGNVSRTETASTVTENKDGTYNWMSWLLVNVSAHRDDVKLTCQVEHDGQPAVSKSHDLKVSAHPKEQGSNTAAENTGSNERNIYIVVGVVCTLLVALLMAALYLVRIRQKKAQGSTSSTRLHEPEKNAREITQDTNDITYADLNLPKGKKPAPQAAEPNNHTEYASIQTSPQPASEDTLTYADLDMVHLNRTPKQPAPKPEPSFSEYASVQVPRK
Source text: as §2

[4] = target: T4, Full length human SIRPα v1 with beta-gal fragment (ED) at its C-terminal, in K562 cells (human, UniProt P78324 31-504); assay: cell-based or functional assay
T4 sequence (P78324 31-504): as above

[5] = target: T5, human SIRPα v1 ECD recombinant protein (human, UniProt P78324 31-373); assay: competitive ELISA, plate-coated human SIRPα v1 ECD; blocked ligand: mFc tagged human CD47 ECD
T5 construct: extracellular domain; Coated on the ELISA plate
T5 sequence (P78324 31-373): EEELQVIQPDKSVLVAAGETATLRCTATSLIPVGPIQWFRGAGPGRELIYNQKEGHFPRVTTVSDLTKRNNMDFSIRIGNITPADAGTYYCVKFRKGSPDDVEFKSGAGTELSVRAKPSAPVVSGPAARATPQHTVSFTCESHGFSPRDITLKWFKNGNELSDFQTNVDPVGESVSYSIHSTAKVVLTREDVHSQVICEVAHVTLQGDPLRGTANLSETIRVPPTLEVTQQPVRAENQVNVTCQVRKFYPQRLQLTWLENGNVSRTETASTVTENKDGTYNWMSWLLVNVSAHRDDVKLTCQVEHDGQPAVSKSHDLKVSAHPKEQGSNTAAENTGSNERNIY
Procedure: as §1

Human SIRPα v2 = target: T6, Human SIRPα v2 (human); assay: SPR (Biacore), 1:1 binding model
T6 construct: also called human SIRPα v2 (antigen of the Biacore assay)
Procedure: The humanized antibodies were characterized for binding affinity against human SIRPα v1, human SIRPα v2 using Surface Plasmon Resonance technology (Biacore system). The association and dissociation curves were fit with 1:1 binding model, and the Ka/Kd/KD values for each antibody were calculated.

[6] = target: T5, human SIRPα v1 ECD recombinant protein; assay: competitive ELISA, plate-coated human SIRPα v1 ECD; blocked ligand: mFc tagged human CD47 ECD; remark: listed apart in the source
Procedure: as §1
(§3) The humanized antibodies were tested for the ability to block CD47 and SIRPα interaction with competitive ELISA assay (refer to methods described above).

[7] = target: T3, human SIRPα v1 on CHOK1 cells; assay: FACS, CHOK1 cells stably expressing human SIRPα v1; remark: listed apart in the source
[8] = target: T2, human SIRPα v2 on CHOK1 cells; assay: FACS, CHOK1 cells stably expressing human SIRPα v2; remark: listed apart in the source
[9] = target: T4, Full length human SIRPα v1 with …; assay: cell-based or functional assay; remark: listed apart in the source
[10] = target: T1, human SIRPα v2 ECD recombinant protein; assay: competitive ELISA, plate-coated human SIRPα v2 ECD; blocked ligand: mFc tagged human CD47 ECD; remark: listed apart in the source
Procedure: as §1, §3

[11] = target: T3, human SIRPα v1 on CHOK1 cells; assay: competitive FACS, CHOK1 cells stably expressing human SIRPα v1; blocked ligand: mFc tagged human CD47 ECD
Procedure: (§4) Competitive FACS assay was also set up to further compare the blocking activity of the humanized antibodies and some known anti-SIRPα antibodies. Briefly antibody and mFc tagged human CD47 ECD recombinant protein were co-incubated with CHOK1 cells stably expressing human SIRPα v1 or human SIRPα v2. After washing, dye labeled anti-mouse Fc 2nd antibody (Sigma) was added and incubated at 37° C. for 1 hour. Fluorescence intensity was detected. Blocking ratio was determined by blockade of human CD47 ECD recombinant protein binding to SIRPα expressed CHOK1 cells.

[12] = target: T2, human SIRPα v2 on CHOK1 cells; assay: competitive FACS, CHOK1 cells stably expressing human SIRPα v2; blocked ligand: mFc tagged human CD47 ECD
Procedure: as §4

[13] = target: human PDL1 protein (Octet assay) (human, UniProt Q9NZQ7 19-238); assay: Octet; antibody on sensor, PDL1 protein in solution
Sequence of human PDL1 protein (Octet assay) (Q9NZQ7 19-238 limits assumed): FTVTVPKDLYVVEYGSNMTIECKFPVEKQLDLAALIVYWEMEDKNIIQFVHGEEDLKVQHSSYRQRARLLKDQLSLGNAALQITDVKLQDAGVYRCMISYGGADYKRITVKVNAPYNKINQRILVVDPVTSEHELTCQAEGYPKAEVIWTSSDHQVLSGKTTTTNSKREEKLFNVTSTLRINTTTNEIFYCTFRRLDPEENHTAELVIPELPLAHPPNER
Procedure: The Anti-PDL1/SIRPα bispecific protein were characterized for binding affinity against human PDL1 using Octet assay (ForeBio) according to manufacturer's manual, separately. Briefly, the antibodies were coupled on sensors and then the sensors were dipped into PDL1 protein gradients (start at 200 nM, with 2-fold dilution and totally 8 doses). Their binding responses were measured in real-time and results were fit globally.

human PDL1 on cells = human PDL1 on cells (human, UniProt Q9NZQ7 19-290); assay: cell-based or functional assay
Sequence of human PDL1 on cells (Q9NZQ7 19-290): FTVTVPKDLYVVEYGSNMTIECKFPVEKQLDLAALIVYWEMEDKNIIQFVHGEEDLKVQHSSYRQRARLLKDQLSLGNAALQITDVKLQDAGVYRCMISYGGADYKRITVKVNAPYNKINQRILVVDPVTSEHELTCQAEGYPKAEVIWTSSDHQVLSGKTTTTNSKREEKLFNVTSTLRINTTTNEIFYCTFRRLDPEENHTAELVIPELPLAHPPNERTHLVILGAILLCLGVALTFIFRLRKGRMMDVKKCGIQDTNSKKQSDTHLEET

| Binder | Kd (Human SIRPα v2) | koff (Human SIRPα v2) | kon (Human SIRPα v2) | IC50 [6] | TOP blocking [6] | EC50 [7] | TOP MFI [7] | EC50 [8] | TOP MFI [8] | IC50 (SHP-1 recruitment blocking) [9] | TOP blocking (SHP-1 recruitment) [9] | IC50 [10] | TOP blocking [10] | other results |
| --- | --- | --- | --- | --- | --- | --- | --- | --- | --- | --- | --- | --- | --- | --- |
| B1 | – | – | – | – | – | – | – | – | – | – | – | – | – | IC50 [1]: 54.1 nM; TOP blocking [1]: 84.4%; EC50 [2]: 12 nM; TOP MFI [2]: 19600 MFI; EC50 [3]: 1.45 nM; TOP MFI [3]: 69800 MFI; IC50 (SHP-1 recruitment blocking) [4]: 0.07 nM; TOP blocking (SHP-1 recruitment) [4]: 66.9%; IC50 [5]: 2.63 nM; TOP blocking [5]: 97% |
| B2 | 3.39 nM | 0.0056 s⁻¹ | 1.65e+06 M⁻¹ s⁻¹ | 2.07 nM | 97.7% | 1.08 nM | 56400 MFI | 0.87 nM | 46400 MFI | 0.1 nM | 86.3% | 1.96 nM | 98.3% | – |
| B3 | 2.76 nM | 0.00392 s⁻¹ | 1.42e+06 M⁻¹ s⁻¹ | 2.48 nM | 97.1% | 1.05 nM | 59400 MFI | 0.75 nM | 47300 MFI | 0.1 nM | 78.8% | 2.03 nM | 98.3% | – |
| B4 | 2.78 nM | 0.00492 s⁻¹ | 1.77e+06 M⁻¹ s⁻¹ | 2.6 nM | 97.2% | 1.13 nM | 57800 MFI | 0.81 nM | 45800 MFI | 0.1 nM | 85.5% | 2.07 nM | 98% | IC50 [11]: 0.57 nM; TOP blocking [11]: 97.7%; IC50 [12]: 0.75 nM; TOP blocking [12]: 100% |
| B5 | – | – | – | 2.22 nM | 97.2% | 0.99 nM | 53800 MFI | 0.62 nM | 39800 MFI | 0.19 nM | 84.5% | 1.88 nM | 98.3% | – |
| B6 | 2.34 nM | 0.00344 s⁻¹ | 1.47e+06 M⁻¹ s⁻¹ | 2.15 nM | 95.2% | 0.84 nM | 61500 MFI | 0.8 nM | 48800 MFI | 0.09 nM | 87.5% | 1.88 nM | 97% | IC50 [11]: 0.53 nM; TOP blocking [11]: 98.7%; IC50 [12]: 0.77 nM; TOP blocking [12]: 99.8% |
| B7 | – | – | – | – | – | – | – | – | – | – | – | – | – | IC50 [1]: 2.45 nM; TOP blocking [1]: 96.7%; EC50 [2]: 1.58 nM; TOP MFI [2]: 50100 MFI; EC50 [3]: 1.49 nM; TOP MFI [3]: 80000 MFI; IC50 (SHP-1 recruitment blocking) [4]: 0.09 nM; TOP blocking (SHP-1 recruitment) [4]: 73.5%; IC50 [5]: 2.32 nM; TOP blocking [5]: 96.4% |
| B8 | – | – | – | – | – | – | – | – | – | – | – | – | – | Kd [13]: 4.1 nM; koff [13]: 0.00639 s⁻¹; kon [13]: 1.56e+06 M⁻¹ s⁻¹; EC50 (read off the curve) (human PDL1 on cells): ~1 nM |
